Earlier results on 3 substances are cited in article PMC3012091, “The Concentration of Soluble Extracellular Amyloid-β Protein in Acute Brain Slices from CRND8 Mice” (PLoS ONE, 2010).

Where two headings read alike, the source gives them in different places.

The conditions of series [1]: APP overexpressing mice. From the text: Constant turn-over of Aβ was included in some model calculations by adjusting the concentrations of Aβ at every location within the tissue after each iterative step of the model. […] E ... || The half-life of Aβ in the model is a more likely source of inaccuracy as the half-lives of Aβ species are less clear from the literature. There are few published half-life measurements from APP overexpressing mice.

The conditions of series [2]: human CNS. The text has this:
Constant turn-over of Aβ was included in some model calculations by adjusting the concentrations of Aβ at every location within the tissue after each iterative step of the model.

Series [3] deals with long-term potentiation (LTP). The settings on record: 50–200 pM Aβ applied to acute hippocampal slices. The text has this:
At these concentrations Aβ affects long-term potentiation (LTP) when applied to acute hippocampal slices.

Setting [4] is: postmortem extraction of Aβ from brain tissue.

As for Amyloid-β protein [Aβ], the half-life (usually the time needed for the level to fall by half in the phase considered) in series [1] (in vivo dialysis) was 4 h. Also, the “half-life of Aβ” value in series [2] was 8 to 9 h. In addition, the “effect on LTP” value in series [3] was “both inhibition and enhancement”.
On to “Aβ1–42: endogenous soluble extracellular amyloid-β protein 1–42 of CRND8 mice, measured by human beta amyloid(1–42) ELISA”, for which, in series [1] (setting [4]), the half-life is at most 1.7 h.
On to “Aβ1–40: amyloid-β protein 1–40, literature half-life only”, for which the half-life in series [1] (setting [4]) was at most 0.7 h.
